Laboratory results published in patent US20090017017A1 (SYMPHOGEN A S, published 2009).

T1: Rhesus D antigen (human, UniProt Q02161 2-417)
T1 construct: whole, on cells; Presented on RhD(+) erythrocytes; also called RhD; RhD antigen
T1 sequence (looked up): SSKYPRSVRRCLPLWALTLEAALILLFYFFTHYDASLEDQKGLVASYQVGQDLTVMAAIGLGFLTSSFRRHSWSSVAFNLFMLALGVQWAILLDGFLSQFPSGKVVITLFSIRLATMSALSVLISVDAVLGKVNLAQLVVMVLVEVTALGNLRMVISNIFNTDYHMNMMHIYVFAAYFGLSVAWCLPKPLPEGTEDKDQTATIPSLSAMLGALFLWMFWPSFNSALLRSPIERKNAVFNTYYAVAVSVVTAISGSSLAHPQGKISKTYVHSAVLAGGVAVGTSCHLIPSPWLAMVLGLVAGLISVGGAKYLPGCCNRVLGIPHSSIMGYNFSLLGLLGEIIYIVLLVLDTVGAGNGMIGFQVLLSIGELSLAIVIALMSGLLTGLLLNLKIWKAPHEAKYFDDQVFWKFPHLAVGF


Biological target: T1, Rhesus D antigen
Assay: agglutination assay, Fab periplasmic extract on RhD(+)/RhD(-) RBC mix
Experimental: After each round of panning single colonies were picked for analysis of their binding properties to red blood cells in agglutination assays. Briefly, single colonies were inoculated into 2×YT/100 μg/mL carbenicillin/1% glucose and shaken overnight at 37° C. The next day, DeepWell plates were inoculated using 900 μl 2×YT/100 μg/mL carbenicillin/0.1% glucose and 10 μl overnight culture. The plates were shaken for two hours at 37° C., before Fab induction was performed with addition of 300 μl 2×YT/100 μg/mL carbenicillin/0.25 mM IPTG per well. The plate was shaken overnight at 30° C. The following day, the bacteria were pelleted by centrifugation (3200×g, 4° C., 10 minutes), and re-suspended in 100 μl of 0.8 M NaCl, 0.2×PBS, 8 mM EDTA, and incubated for 15 minutes on ice in order to perform a periplasmic extraction of the Fab fragments. The plate was transferred to −20° C. and finally the suspension was thawed and centrifugation was performed for 10 minutes at 4° C. and 3200×g. The periplasmic extract was used in ELISA assays for analysis of Fab content and in agglutination assays to evaluate the binding potential of the individual Fab fragments.
The agglutination assay was performed as follows: RhD(−) and RhD(+) RBC were mixed in a 1:1 ratio, and washed 3 times in PBS. After the final wash, the cell mix was re-suspended in 1% BSA in PBS at a density of 10% cells, 50 μl was added to each well of a 96-plate. Periplasmic extracts were added to the wells. As a positive control Rhesogamma P immunoglobulin (Aventis) was used according to the manufacturer's instructions. The plates were incubated for one hour at room temperature with gentle shaking. The cells were washed three times with PBS, before the secondary antibody was added (goat anti-human Fab/FITC conjugate, Sigma F5512) in a 1:100 dilution. The plates were left for agglutination for one hour at room temperature without shaking. Fab fragments positive in the agglutination assay was determined by visual inspection, and recorded by taking a picture. Quantization of the binding activity of the Fab fragments was performed by FACS analysis of the agglutination samples.

Binder | binding result
RhD158.119B06 (Fab, V domains shown, Tested as Fab in E. coli periplasmic extract (VH on human gamma 1 CH1, vector Em351)) VH: EVQLVETGGGVVQPGRSLRLSCAASGFSFSNFGFHWIRQSPGKGLEWVAVIWYDGSNRFYADSVKGRFTISRDSSKNMLFLQMDSLRAEDTAVYYCAREISMKVVIRRHYVMDVWGHGTTVTVSS VL: DIQMTQSPSPLSASVGDRVSITCRASRGISNSLAWYQQKPGKVPKLLIYAASTLQSGVPSRFSGGGSGTDFTLTISSLQPEDVATYYCHTYNSAPFAFGPGTKVDIKR | binds
RhD204.128A03 (Fab, V domains shown, Tested as Fab in E. coli periplasmic extract (VH on human gamma 1 CH1, vector Em351); Lambda clone) VH: EVQLVESGGGVVQPGRSLRLSCAASGFSFSNYGMHWVRQAPGKGLEWVAVISYDGSEKYYADSVKGRFTISRDNSKKALYLQMNSLRAEDTAMYYCKNKVGATRRAVVAFDIWGQGTTVTVSS VL: LSSELTQDPAVSVALGQTVRITCQGDSLRSYYANWYQQKPGQAPLSVIYGKNNRPSGIPDRFSGSNSGNTAFLTITGTQAEDEADYYCNSRDSSGNYRELFGGGTKLTVLG | binds
RhD294.119E10 (Fab, V domains shown, Tested as Fab in E. coli periplasmic extract (VH on human gamma 1 CH1, vector Em351)) VH: QVQLVESGGGVVQPGRSLRLSCAASGFSFSNYGMHWVRQAPGKGLEWVAVISYDGSEKYYADSVKGRFTISRDNSKKTLYLQMNSLRAEDTAMYYCKNKVGATRRAVVAVDIWGQGTMVTVSS VL: EIVLTQSPGTLSLSPRERATLSCRANQYVNSNHLAWYQQKPGQAPRLLLYGASRRATGIPDRFSGSGTGTDFTLIISRLEPEDFAVYFCQLYDHSRPMYTFGQGTKLEIKR | binds
RhD241.119B05 (Fab, V domains shown, Tested as Fab in E. coli periplasmic extract (VH on human gamma 1 CH1, vector Em351)) VH: QVQLQESGPGLVKPSETLSLICTVSGGSISSNYWSWIRQPPGKGLEWIGYIYYSGNTNYNPSLKSRVTISLDTSKNQFSLKLRSVTAADTAVYYCAREWRQYGSGIRGSRYYYGMDVWGQGTLVTVSS VL: EIVLTQSPVTLSLSPGERATLSCRASQSVSSGYLAWYQQKPGQAPRLLIYGTSIRATGIPDRFSGSGSGTDFTLTISRLEPEDFAVYYCQQYGSSPLYSFGQGTKVDIKR | binds
RhD159.119B09 (Fab, V domains shown, Tested as Fab in E. coli periplasmic extract (VH on human gamma 1 CH1, vector Em351)) VH: EVQLVETGGGLVQPGGSLRLSCAASGFSFRSYDMNWVRQAPGKGLEWVSYISGRGSTTYYADSVKGRFTISRDNAKNSLYLQMNSLRAEDTAVYYCARDLYGDYDPKSYYYYAMDVWGHGTTVTVSS VL: EIVMTQSPGTLSLSPGERATLSCRASHTVSSGYLAWYQQKPGQAPRLLIYGASNRATGVPDRFGGSGSGTDFTLTISRLEPEDSAVYFCQQYGTSPGVTFGQGTRLEIER | binds
RhD205.160B12 (Fab, V domains shown, Tested as Fab in E. coli periplasmic extract (VH on human gamma 1 CH1, vector Em351)) VH: EVQLVETGGGLVKPGGSLRLSCAASGFTFRSYSMNWVRQAPGKGLEWVSSIGSSSTYTYSADSVKGRFTISRDNAKNSLYLQMNSLRAEDTAVYYCARGEPLNYDYIWGGYRFTIHWGQGTLVTVSS VL: DIQLTQSPSFLSASVGDRVTITCRASHGISSYLAWYQQKPGKAPNLLIFPASTLQSGVPSRFSGSGSGTEFTLTISSLRPEDFATYYCQQLNSYSRWAFGQGTKVEVKR | binds
RhD242.181A03 (Fab, V domains shown, Tested as Fab in E. coli periplasmic extract (VH on human gamma 1 CH1, vector Em351)) VH: EVQLVESGGGVVQPGRSLRLSCAASGFTFSNHGMHWVRQAPGKGLEWVAVIWYDGSNKYYADSVKGRFTISRDNSKNTLYLQMNSLRAEDTAVYYCAREMASYSSSWYRRYYYYVMDVWGKGTTVTVSS VL: not shown | binds
RhD293.109A09 (Fab, V domains shown, Tested as Fab in E. coli periplasmic extract (VH on human gamma 1 CH1, vector Em351)) VH: EVQLVESGGGVVQPGRSLRLSCAASGFTFNTYGMHWVRQAPGKGLEWVAVIWYDGSNKYYADSVKGRFTISRDNSKNTLYLQMNSLRAEDTAVYYCAREVAVRGVIRYYYAMDVWGQGTTVTVSS VL: not shown | binds
RhD239.126F09 (Fab, V domains shown, Tested as Fab in E. coli periplasmic extract (VH on human gamma 1 CH1, vector Em351)) VH: QVQLVESGGGVVQPGTSLRLSCAASGFTFRTYGMHWVRQAPGKGLEWVAYIWYDGSNKYYADSVKGRFTISRDNSKSTLNLQMNSLRAEDTAVYYCAREIASRGYSRYLYYFDSWGQGTLVTVSS VL: DIQLTQSPSSLSASVGDRVTITCRASQSISSYLNWYQQKPGKAPKLLISAASSLQSGVPSRFSGSGSGTDFTLTISSLQREDYATYYCQQSYSTPPYTFGQGTKLEIKR | binds

Results, then the binder that gave them:

binding result | Binder
binds | RhD244.158B10 (Fab, V domains shown, Tested as Fab in E. coli periplasmic extract (VH on human gamma 1 CH1, vector Em351)) VH: QVQLVESGGGVVQPGRSLRLSCAASGFSFSSYGMHWVRQAPGKGLEWVAIIWYDGSNKLYADSVKGRFTISRDNSRNTLYLQMSSVRAEDTAVYYCARDSVRGVSRWGTQKYYAMDVWGQGTTVTVSS VL: DIQMTQSPSSLSASVGDRVIITCRASQSVNRYLNWYQQKPGKAPKLLIYAASSLQGGVPSRFSGSGSGTDFTLTISSLQREDFATYYCQQSYRTRTFGQGTKVEIKR
binds | RhD245.164E06 (Fab, V domains shown, Tested as Fab in E. coli periplasmic extract (VH on human gamma 1 CH1, vector Em351)) VH: EVQLVQSGGGVVQPGRSPRLSCAASGFTFSSYGMHWVRQAPGKGLEWVAFIWYDGSNKYYADSVKGRFTISRDNSKNTLYLQMNSLRAEDTAVYYCARDLRNHVFWSGYSTSFDYWGQGTLVTVSS VL: DIQMTQSPSSLSASVGDGITITCRASQSVRSYLNWYQQKPGKAPELLIYAASRLQSGVPSRFSGSGSGTDFTLTISSLQPEDFATYYCQHSYSTPVTFGQGTKVEVKR
binds | RhD208.179B11 (Fab, V domains shown, Tested as Fab in E. coli periplasmic extract (VH on human gamma 1 CH1, vector Em351)) VH: EVQLVESGGGVVQPGRSLRLSCAASGFTFRTSAMHWVRQAPGKGLEWVAVIWYDGSNKYYADSVKGRFTISRDNSKNTLYLQMNSLRAEDTAVYYCAREMVSYSSSWYRRYYYYNMDVWGKGTTVTVSS VL: QAVVTQEPSLTVSPGGTVTLTCASSTGSVTSGYYPNWFQQKPGQAPRPLISGTSNKLSWTPARFSGSLLGGKAALTVSGVQPEDEAVYYCLLYYGVPQPVVFGGGTKLTVLG
binds | RhD246.179B10 (Fab, V domains shown, Tested as Fab in E. coli periplasmic extract (VH on human gamma 1 CH1, vector Em351)) VH: EVQLVETGGGVVQPGRSLRLSCAASGFTFSSYGMHWVRQAPGKGLEWVAVIWYDGSNKYYADSVKGRFTISRDNSKNTLYLQMNSLRAEDTAVYYCAREMVSYSSSWYRRYYYYNMDVWGKGTTVTVSS VL: LSSELTQDPAVSVTLGQTVRITCQGDSLRHSYASWYQQKPGQAPILVIYGKNIRPSGIPDRFSGSTSGNTASLTITGAQAEDGGDYYCNSRDTSTDHYVFGDGTRVTVVG
binds | RhD206.160C06 (Fab, V domains shown, Tested as Fab in E. coli periplasmic extract (VH on human gamma 1 CH1, vector Em351)) VH: QVQLVESGGGVVQPGRSLRLSCAASGFTFSSYGMHWVRQAPGKGLEWVAIIWFDGSNKYYADSVKGRFTISRDNSKNTLYLQINSLRAEDTAVYYCAKEHGYYSSSWYRNYYYYAMDVWGQGTTVTVSS VL: DIQMTQSPSSLSASVGDRVTITCRASQSIRRYLNWYQKKPGKAPKLLIYAASSLQSGVPSRFSGSGSGTDFTLTISSLQPEDFATYYCQQSYRTQGLTFGGGTKVEIKR
binds | RhD243.109A05 (Fab, V domains shown, Tested as Fab in E. coli periplasmic extract (VH on human gamma 1 CH1, vector Em351)) VH: QVQLVESGGGVVQPGRSLRLSCAASGFTFSTYGMHWVRQAPGKGLEWVAVIWYDGSQKYYVDSVKGRFTISRDNSKNTLYLQMNSLRAEDTAVYYCAREVAVRGVIRYYYGMDVWGQGTTVTVSS VL: DIQLTQSPSSLAASVGDRVIITCRSGQGIRNYLNWYQQKPGKAPKLLIYAASFLQSGVPSRFSGSGSGTDFTLTISSLQPEDFATYNCQQSYSDPWTFGQGTKVEIKR
binds | RhD292.109A02 (Fab, V domains shown, Tested as Fab in E. coli periplasmic extract (VH on human gamma 1 CH1, vector Em351)) VH: QVQLVETGGGVVQPGRSLRLSCAASGFTFSSYGMHWVRQAPGKGLEWVAVIWSDGSNKYYADSVKGRFTISRDNSRNTLYLQMNSLRAEDTAVFYCAREQGGYSSSWYRRYYYYYMDVWGQGTTVTVSS VL: DIQMTQSPSSLSASVGDRVTITCRASQSISSWLNWYQQKPGKAPNLLIFAASTLQSGVPSRFSGSGSGTDFTLTISSLQPEDFATYYCQQSYSSSVYTFGQGTKLEIKR
binds | RhD240.125A09 (Fab, V domains shown, Tested as Fab in E. coli periplasmic extract (VH on human gamma 1 CH1, vector Em351)) VH: QLQLQESGPGLVKPSGTLSLTCAVSGGSMRSSNWWTWVRQPPGKGLEWIGEIHHGGSTNYNPSLQSRVTISVDKSKNRFSLKLSSVTAADTAVYHCARGRSYYDSSGHSFRGLVPFDIWGQGTMVTVSS VL: DIQMTQSPSTLSASVGDRVTITCRASQSISSWLAWYQQKPGKAPKLLVYKTSSLEGGVPSRFSGSGSGTEFSLTIFRLQSDDFATYYCQQYNSFPYTFGQGTKLEFTR
